Data from publication PMC10557868, “Piperacetazine Directly Binds to the PAX3::FOXO1 Fusion Protein and Inhibits Its Transcriptional Activity”.

Assays:
[1] = molecular target: T1, PAX3::FOXO1 fusion protein (UniProt P23760 1-391+Q12778:211-655, internal_change); assay: SPR; SPR, Biacore T-200, CM5 chip; PBS-P (20 mM phosphate pH 7.4, 137 mM NaCl, 2.7 mM KCl, 0.05% P20) stated as immobilization running buffer, with 5% DMSO for small molecules; temperature not stated; settings: protein: recombinant; tags: C-terminal 12xHis; N-terminal internal HA tag; blunt
[2] = molecular target: T1, PAX3::FOXO1 fusion protein; assay: SPR; DNA 1.25-80 nM; SPR, Biacore T-200, CM5 chip; PBS-P (20 mM phosphate pH 7.4, 137 mM NaCl, 2.7 mM KCl, 0.05% P20) stated as immobilization running buffer, with 5% DMSO for small molecules; temperature not stated; settings: protein: recombinant; tags: C-terminal 12xHis; N-terminal internal HA tag; blunt

T1 sequence (P23760 other isoform, or with tags, fused parts or gaps): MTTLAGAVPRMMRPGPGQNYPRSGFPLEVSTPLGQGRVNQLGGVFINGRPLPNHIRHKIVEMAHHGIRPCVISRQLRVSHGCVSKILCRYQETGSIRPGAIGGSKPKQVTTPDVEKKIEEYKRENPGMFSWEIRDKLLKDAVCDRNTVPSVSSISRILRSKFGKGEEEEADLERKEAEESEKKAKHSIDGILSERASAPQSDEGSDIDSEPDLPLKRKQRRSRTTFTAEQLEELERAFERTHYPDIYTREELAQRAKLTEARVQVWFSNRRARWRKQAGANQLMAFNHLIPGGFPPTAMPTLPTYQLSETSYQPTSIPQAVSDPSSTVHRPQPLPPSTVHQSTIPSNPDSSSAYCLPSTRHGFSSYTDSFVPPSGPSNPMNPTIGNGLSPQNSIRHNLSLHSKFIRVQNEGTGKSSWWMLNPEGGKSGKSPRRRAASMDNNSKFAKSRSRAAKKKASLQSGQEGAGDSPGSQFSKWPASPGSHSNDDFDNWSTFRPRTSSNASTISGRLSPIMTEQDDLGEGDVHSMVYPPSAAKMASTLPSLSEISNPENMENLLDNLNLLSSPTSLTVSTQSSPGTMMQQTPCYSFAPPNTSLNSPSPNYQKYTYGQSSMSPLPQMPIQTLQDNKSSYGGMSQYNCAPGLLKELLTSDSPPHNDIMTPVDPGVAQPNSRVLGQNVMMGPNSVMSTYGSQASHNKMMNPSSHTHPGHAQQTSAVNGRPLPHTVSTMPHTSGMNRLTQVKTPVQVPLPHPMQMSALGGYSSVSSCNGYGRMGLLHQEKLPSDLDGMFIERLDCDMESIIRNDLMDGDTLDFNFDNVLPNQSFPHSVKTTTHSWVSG

B1: PAX3::FOXO1-specific oligonucleotide (dsDNA)
DNA 1: ACCGTGACTAATTTAATTAGTCACG
DNA 2: CGTGACTAATTAAATTAGTCACGGT
[1]
  Kd: 6.3 nM

B2: EWS::FLI1-specific oligonucleotide (GGAA repeats) (dsDNA)
DNA 1: ACCGGAAGGAAGGAAGGAAGGAAGGAAGGAAGTG
DNA 2: CACTTCCTTCCTTCCTTCCTTCCTTCCTTCCGGT
[2]
  binding result: no binding
